Measurements as given in article PMC8326117 (International Journal of Biological Sciences, 2021).

Biological target: SARS-CoV-2 S-protein RBD (SARS-CoV-2, UniProt P0DTC2)
Assay: SPR
Details: both partners purified

B1: S-protein neutralizing peptide AYn1 (peptide)
peptide: KKKKKKDKFNHEAEDLFY
notes: also called 6K-modified AYn1 peptide
B1 showed a Kd of 95.6 nM.
